We go through one substance from patent US20260152553A1.

In this experiment the target is CD19/CD20 bispecific CAR (Leu16 scFv-(G4S)4-FMC63 scFv-IgG4 hinge-CD28 TM-4-1BB-CD3 zeta). In words: flow cytometry, staining of T cells (donor 1917) transduced with CD19/20 CAR lentiviral vector. On the technique in general: A flow cytometer gives signals particle by particle.
Sequence of CD19/CD20 bispecific CAR (Leu16 scFv-(G4S)4-FMC63 scFv-IgG4 hinge-CD28 TM-4-1BB-CD3 zeta) (chain, as listed by the source): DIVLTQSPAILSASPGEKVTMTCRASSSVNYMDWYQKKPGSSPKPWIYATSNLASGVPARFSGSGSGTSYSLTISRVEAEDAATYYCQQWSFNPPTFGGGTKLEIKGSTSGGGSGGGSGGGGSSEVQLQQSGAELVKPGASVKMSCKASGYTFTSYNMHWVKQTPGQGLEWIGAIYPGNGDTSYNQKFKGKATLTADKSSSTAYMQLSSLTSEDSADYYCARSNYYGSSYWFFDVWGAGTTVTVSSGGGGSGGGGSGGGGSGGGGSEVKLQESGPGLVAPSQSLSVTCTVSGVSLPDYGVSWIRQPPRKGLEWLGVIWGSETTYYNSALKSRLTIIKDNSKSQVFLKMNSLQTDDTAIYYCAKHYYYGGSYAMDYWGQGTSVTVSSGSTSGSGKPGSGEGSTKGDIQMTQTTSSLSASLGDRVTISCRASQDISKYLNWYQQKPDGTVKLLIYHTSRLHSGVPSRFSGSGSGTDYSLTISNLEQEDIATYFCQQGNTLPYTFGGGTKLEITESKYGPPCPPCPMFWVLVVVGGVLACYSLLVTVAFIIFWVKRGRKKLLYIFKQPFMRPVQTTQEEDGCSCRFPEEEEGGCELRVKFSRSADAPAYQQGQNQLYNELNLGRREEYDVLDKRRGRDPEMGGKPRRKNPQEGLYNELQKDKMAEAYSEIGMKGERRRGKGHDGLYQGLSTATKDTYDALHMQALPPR

Substance “Byotinilated anti-FMC63 (Acros) (antibody)” yielded a % Positive Cells of 59.6%.
